Data taken from publication PMC6270756.

Target: Nucleoside 2'-deoxyribosyltransferase from Bacillus psychrosaccharolyticus CECT 4074 (Bacillus psychrosaccharolyticus)
Test: SEC; pure BpNDT on Sepharose 12 10/300 GL column (GE Healthcare); native mass estimated

Nucleoside 2'-deoxyribosyltransferase from Bacillus psychrosaccharolyticus CECT 4074 (enzyme)
stoichiometry N: 6
